Assay results: patent US20240254239A1 (LAEKNA THERAPEUTICS SHANGHAI, published 2024)

T1: human MICA ECD (human, UniProt Q29983 24-307)
T1 construct: extracellular domain
T1 sequence (looked up): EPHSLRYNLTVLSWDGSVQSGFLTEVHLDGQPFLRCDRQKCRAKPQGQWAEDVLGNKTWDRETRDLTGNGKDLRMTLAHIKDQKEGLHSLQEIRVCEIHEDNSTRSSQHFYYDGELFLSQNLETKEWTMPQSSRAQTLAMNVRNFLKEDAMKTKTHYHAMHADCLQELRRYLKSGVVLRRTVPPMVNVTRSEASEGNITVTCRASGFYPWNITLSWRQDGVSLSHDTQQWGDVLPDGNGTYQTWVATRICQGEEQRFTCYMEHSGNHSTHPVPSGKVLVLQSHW

B1: α-GPC3 1 mIgG2a S239D/1332E (antibody, V domains shown)
VH: QVQLQQSGAELVRPGASVKLSCKASGYTFTDYEMHWVKQTPVHGLKWIGALDPKTGDTAYSQKFKGKATLTADKSSSTAYMELRSLTSEDSAVYYCTRFYSYTYWGQGTLVTVSA
VL: DVVMTQTPLSLPVSLGDQASISCRSSQSLVHSNGNTYLHWYLQKPGQSPKLLIYKVSNRFSGVPDRFSGSGSGTDFTLKISRVEAEDLGVYFCSQNTHVPPTFGSGTKLEIKR
notes: mIgG2a with S239D/I332E; also called α-GPC3 1 mIgG2a S239D/I332E; exemplary anti-GPC3 antibody (α-GPC3 1)
B2: α-PDGFRb 1-NKG2D KIH S239D/1332E (bispecific antibody, human IgG1, kappa)
heavy: QVQLQESGPGLVKPSETLSLTCTVSGFSLTNYAINWVRQPPGKGLEWLGIIWTGGGTSYNSALKSRLTISKDTSKNQVSLKLSSVTAADTAVYYCARTGTRGYFFDYWGQGTLVTVSSASTKGPSVFPLAPSSKSTSGGTAALGCLVKDYFPEPVTVSWNSGALTSGVHTFPAVLQSSGLYSLSSVVTVPSSSLGTQTYICNVNHKPSNTKVDKKVEPKSCDKTHTCPPCPAPELLGGPDVFLFPPKPKDTLMISRTPEVTCVVVDVSHEDPEVKFNWYVDGVEVHNAKTKPREEQYNSTYRVVSVLTVLHQDWLNGKEYKCKVSNKALPAPEEKTISKAKGQPREPQVCTLPPSREEMTKNQVSLSCAVKGFYPSDIAVEWESNGQPENNYKTTPPVLDSDGSFFLVSKLTVDKSRWQQGNVFSCSVMHEALHNHYTQKSLSLSPGK
chain: FLNSLFNQEVQIPLTESYCGPCPKNWICYKNNCYQFFDESKNWYESQASCMSQNASLLKVYSKEDQDLLKLVKSYHWMGLVHIPTNGSWQWEDGSILSPNLLTIIEMQKGDCALYASSFKGYIENCSTPNTYICMQRTVGGSGGGSGFLNSLFNQEVQIPLTESYCGPCPKNWICYKNNCYQFFDESKNWYESQASCMSQNASLLKVYSKEDQDLLKLVKSYHWMGLVHIPTNGSWQWEDGSILSPNLLTIIEMQKGDCALYASSFKGYIENCSTPNTYICMQRTVGGGGSGGGGSGGGGSGGGGSPKSSDKTHTCPPCPAPELLGGPDVFLFPPKPKDTLMISRTPEVTCVVVDVSHEDPEVKFNWYVDGVEVHNAKTKPREEQYNSTYRVVSVLTVLHQDWLNGKEYKCKVSNKALPAPEEKTISKAKGQPREPQVYTLPPCRDELTKNQVSLWCLVKGFYPSDIAVEWESNGQPENNYKTTPPVLDSDGSFFLYSKLTVDKSRWQQGNVFSCSVMHEALHNHYTQKSLSLSPGK
light: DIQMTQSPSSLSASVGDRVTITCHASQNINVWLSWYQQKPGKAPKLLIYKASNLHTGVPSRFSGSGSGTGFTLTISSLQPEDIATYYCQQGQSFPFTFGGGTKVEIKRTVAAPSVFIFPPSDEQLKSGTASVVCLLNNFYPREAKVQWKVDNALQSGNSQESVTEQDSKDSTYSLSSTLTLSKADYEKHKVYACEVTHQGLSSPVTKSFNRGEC
notes: The Fc carries S239D/I332E; also called α-PDGFRb 1-NKG2D KIH S239D/I332E; knob-into-hole bispecific antibody
B3: α-PDGFRb 1 S239D/1332E (antibody, human IgG1, kappa, V domains shown)
VH: QVQLQESGPGLVKPSETLSLTCTVSGFSLTNYAINWVRQPPGKGLEWLGIIWTGGGTSYNSALKSRLTISKDTSKNQVSLKLSSVTAADTAVYYCARTGTRGYFFDYWGQGTLVTVSS
VL: DIQMTQSPSSLSASVGDRVTITCHASQNINVWLSWYQQKPGKAPKLLIYKASNLHTGVPSRFSGSGSGTGFTLTISSLQPEDIATYYCQQGQSFPFTFGGGTKVEIKR
notes: also called α-PDGFRb 1 S239D/I332E; exemplary anti-PDGFRb antibody (α-PDGFRb 1)

Experiments:
human GPC3 ECD = biological target: T2, human GPC3 ECD (human, UniProt P51654 25-559, limits assumed); test: direct ELISA on coated recombinant ECD (30 ng/well), HRP-conjugated secondary antibody, luminescence
T2 construct: extracellular domain; also called recombinant extracellular domain of GPC3
Experimental: (§1) Briefly, recombinant extracellular domain of PDGFRb, FAPα, ULBP1, uPAR, IGF1R, SIRPA, PD-L1, ANTXR1, CD248, or GPC3 (30 ng/well) was coated on white optiplate™-384 well HB plate. After overnight coating, standard direct ELISA assay was performed. Luminescence signal was detected after using secondary antibody with HRP conjugated. Binding activity of each antibody was determined based on dose dependent binding curve.

Human PDGFRb ECD [1] = biological target: T3, Human PDGFRb ECD (human, UniProt P09619 33-532); test: ELISA on human PDGFRb ECD, luminescence
T3 construct: extracellular domain; also called recombinant extracellular domain of PDGFRb

human MICA ECD = biological target: T1, human MICA ECD; test: ELISA on human MICA ECD, luminescence
Human PDGFRb ECD [2] = biological target: T3, Human PDGFRb ECD; test: direct ELISA on coated recombinant ECD (30 ng/well), HRP-conjugated secondary antibody, luminescence
Experimental: as §1

T3 sequence (P09619 33-532): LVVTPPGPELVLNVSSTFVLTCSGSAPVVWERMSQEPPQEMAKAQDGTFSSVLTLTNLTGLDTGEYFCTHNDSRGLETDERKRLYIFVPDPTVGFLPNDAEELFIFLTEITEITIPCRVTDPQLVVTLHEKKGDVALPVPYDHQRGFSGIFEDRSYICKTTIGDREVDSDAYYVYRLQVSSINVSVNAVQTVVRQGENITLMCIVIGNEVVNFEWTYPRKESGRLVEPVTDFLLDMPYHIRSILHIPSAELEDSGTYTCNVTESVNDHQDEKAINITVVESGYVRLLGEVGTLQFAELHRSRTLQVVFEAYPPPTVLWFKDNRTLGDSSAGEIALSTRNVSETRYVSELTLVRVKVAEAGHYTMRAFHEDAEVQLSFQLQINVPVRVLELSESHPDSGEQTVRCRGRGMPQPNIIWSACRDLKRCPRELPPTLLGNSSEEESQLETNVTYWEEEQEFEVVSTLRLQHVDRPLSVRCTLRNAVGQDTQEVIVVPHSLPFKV
T2 sequence (P51654 25-559 limits assumed): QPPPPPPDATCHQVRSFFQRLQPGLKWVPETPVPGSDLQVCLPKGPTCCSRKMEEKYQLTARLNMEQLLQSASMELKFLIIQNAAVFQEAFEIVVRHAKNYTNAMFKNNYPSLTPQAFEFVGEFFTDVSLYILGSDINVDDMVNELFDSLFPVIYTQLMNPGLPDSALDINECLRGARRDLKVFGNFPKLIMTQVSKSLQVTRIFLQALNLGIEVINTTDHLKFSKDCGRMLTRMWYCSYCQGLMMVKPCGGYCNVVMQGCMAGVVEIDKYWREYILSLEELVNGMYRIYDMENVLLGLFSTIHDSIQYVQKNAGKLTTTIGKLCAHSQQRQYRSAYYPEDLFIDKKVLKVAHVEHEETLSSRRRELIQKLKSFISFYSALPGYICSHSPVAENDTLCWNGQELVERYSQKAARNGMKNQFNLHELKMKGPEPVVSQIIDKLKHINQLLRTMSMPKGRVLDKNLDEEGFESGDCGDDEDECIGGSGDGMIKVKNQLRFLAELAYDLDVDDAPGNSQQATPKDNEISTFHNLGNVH

Binder | EC50 (read off the curve) (human GPC3 ECD) [µg/mL] | EC50 (read off the curve) (Human PDGFRb ECD [1]) [µg/mL] | binding result (human MICA ECD) | EC50 (read off the curve) (Human PDGFRb ECD [2]) [µg/mL]
B1 | ~0.02 |  |  | 
B2 |  | ~0.02 | binds | 
B3 |  | ~0.02 |  | ~0.03
